Earlier results on one substance are cited in paper PMC10105536.

“And” between values parts separate entries of the source, which are not always exact repeats. Equal values may be shown once.

This data set concerns the target EGFR (Homo sapiens) (UniProt P00533).

For orientation: Kd means the free concentration of one partner at which half of the binding sites on the other are occupied at equilibrium, for simple one-to-one binding. As to EGF (from UniProt P01133), the Kd was 0.3 nM and 2 nM.
